Source: US20030129189A1, “Tumor necrosis factor-gamma” (priority 1994, published 2003)

Assays:
[1] = tested on: adult bovine aortic endothelial (ABAE) cells; experiment: In vitro angiogenesis assay (capillary-like tubes on collagen gels); assay type: cell-based; conditions: control
TNF-gamma-beta [2] = biological target: T1, TNF-gamma-beta (Homo sapiens, UniProt O95150); experiment: Coimmunoprecipitation of TNF-gamma-beta by TNFR-Fc proteins; assay type: binding
T1 construct: made in house; host or cells: 293T cells, transient transfection
T1 sequence (O95150 72-251 limits assumed): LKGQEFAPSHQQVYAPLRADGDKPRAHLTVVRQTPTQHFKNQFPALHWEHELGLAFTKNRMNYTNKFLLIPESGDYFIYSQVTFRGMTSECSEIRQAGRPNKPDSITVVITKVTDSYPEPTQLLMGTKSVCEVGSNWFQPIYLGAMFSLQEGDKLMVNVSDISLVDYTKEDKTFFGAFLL
From the text: The beads were then precipitated and washed extensively with PBST buffer (PBS, 0.5% Triton X-100) before boiled in SDS-sample buffer. Proteins were resolved on 4-20% Tris-Glycine gels (NOVEX), transferred to nitrocellulose membranes, and blotted with anti-Flag M2 monoclonal antibody (1 microgram/ml, Sigma) andhorseradish peroxidase (HRP)-conjugated goat anti-mouse IgG antibody (0.5 microgram/ml).

TNF-gamma-beta [3] = biological target: T1, TNF-gamma-beta; experiment: Neutralization of TNF-gamma-beta induced SEAP production in TF-1/SRE reporter cells; assay type: cell-based; conditions: TNF-gamma-beta at 200 ng/mL, TF1/SRE reporter cells
Description: Briefly, a poly-D-lysine coated 96-well plate is seeded with TF-1/SRE-SEAP cells (in RPMI+0.2% Fetal bovine serum) at 75,000 cells per well. […] Again cells were incubated overnight. After overnight incubation, conditioned media were collected and SEAP activity was determined using the SEAP Reporter Gene Assay available from Roche Molecular Biochemicals (Indianapolis, Ind.) according to the manufacturer's directions. Briefly, Conditioned media were diluted 1:4 into dilution buffer. Samples were incubated at 65C for 30 minutes to eliminate contaminating AP activity usually present in culture medium. 25 microliters of the heat-inactivated samples were mixed with equal volume of inactivation buffer (containing a mixture of differential alkaline phosphatase inhibitors). Following a 5-minute incubation at room temperature, 50 uL of alkaline phosphatase substrate (CSPD) was added to each well. Chemiluminescence signal was read 10-15 minutes later using a luminometer.
These solutions were then incubated for 1 hour at room temperature. […] After the overnight incubation, the SEAP assay was performed as described above.
The premyeloid cell line TF-1 was stably transfected with SRE/SEAP (Signal Response Element/Secreted Alkaline Phosphatase) reporter plasmid that responds to the SRE signal transduction pathway.

TNF-gamma-beta [4] = biological target: T2, TNF-gamma-beta (Homo sapiens, UniProt O95150); experiment: Inhibition of TNF-gamma-beta activation of NF-κB in 293T cells; assay type: cell-based
T2 construct: made in house; host or cells: E. coli (untagged) or 293T (FLAG-tagged)
T2 sequence (O95150 72-251): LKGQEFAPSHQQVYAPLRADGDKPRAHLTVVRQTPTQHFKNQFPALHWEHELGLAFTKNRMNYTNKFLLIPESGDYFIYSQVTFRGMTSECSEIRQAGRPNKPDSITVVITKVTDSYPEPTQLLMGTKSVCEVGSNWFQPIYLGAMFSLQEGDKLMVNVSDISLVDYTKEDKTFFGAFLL
Description: To avoid spontaneous apoptosis or NF-κB activation accompanied with DR3 overexpression, a limited amount of DR3-expression DNA that by itself minimally activated these pathways was used.
293T cells were transiently transfected using LipofectAMINE and PLUS reagents according to the manufacturer's instruction (Invitrogen). For reporter assays, 293T cells, at 5×10^5 cells/well, were seeded in 6-well plates and transfected with a total of 1 microgram of DNA. pC4 DNA was used as filler DNA. Conditioned supernatant was collected 24 hr post-transfection and assayed for secreted alkaline phosphatase (SEAP) activity using the Phospha-Light™ chemiluminescent reporter gene assay system (Tropix). pCMV-lacZ was used as internal control for transfection efficiency normalization.

TNF-gamma-beta [5] = biological target: T2, TNF-gamma-beta; experiment: Inhibition of TNF-gamma-beta-mediated IFNγ secretion from T cells; assay type: cell-based; conditions: costimulated T cells
Description: The extent of the increase in IL-2 receptor expression is consistent with the moderate increase in IL-2 responsiveness compared with IL-2 itself.
1×10^5 cells/ml of purified T cells were seeded in a 24-well tissue culture plate that had been coated with anti-CD3 (0.3 microgram/ml) and anti-CD28 (5.0 microgram/ml) overnight at 4° C. […] ELISA assay for IFNγ, GM-CSF, IL-2 IL-4, IL-10 and TNFα were performed using kits purchased from R & D Systems. Recombinant human IL-2 (5 ng/ml) was used as a positive control. All samples were tested in duplicate and results were expressed as an average of duplicate samples plus or minus error.

TNF-gamma-beta [6] = biological target: T2, TNF-gamma-beta; experiment: Inhibition of TNF-gamma-beta induced caspase activation in TF-1 cells; assay type: cell-based; conditions: presence of cycloheximide
Description: Briefly, cells growing in microtiter plates are induced to undergo apoptosis, causing an activation of caspase activities. Equal volume of a caspase substrate (Asp-Glu-Val-Asp-Rhodamine 110, or DEVD-R110) solution is then added and incubated for at least 1 hour. During this incubation, cells are being lysed and free R110 is released from the substrate. The level of free R110 is determined fluorimetrically, using a fluorescence reader with excitation filter 470-500 nm and emission filter 500-560 nm.
A black 96-well plate with a clear bottom is seeded with 75,000 TF-1 cells in RPMI containing 1% fetal bovine serum and micrograms/milliliter cyclohexamide. […] Following the manufacturer's directions, an equal volume of 1×substrate solution containing 50 micromolar DEVD-R110 diluted in incubation buffer is added to each well. The 96-well plates are then incubated for 2 hours after which the plate is read in a fluorescence reader with an excitation filter at 485 nm and an emission filter at 535 nm.
These solutions were then incubated for 1 hour at room temperature.
The reagents were incubated for 1 hour at RT to allow the formation of protein-TNF-gamma-beta complexes and then added to the cells. Caspase activity was measured as described above.

[7] = tested on: TNF-gamma on the cell surface; experiment: FACS analysis of receptor-ligand binding on cells
Description: Consistent with the Northern blot analysis, peripheral blood mononuclear cells (PBMC) and human umbilical vein endothelial cells (HUVEC) express TNF-gamma on the cell surface by immunostaining with antibody to TNF-gamma. [Cells were collected by trypsinization or aspiration, and centrifuged at 1500-2000 rpm for 5 min. The cell pellets were resuspended and washed in 5 ml ice-cold PBS twice. The cells were incubated for 30 min at […] with antibody (10 mg/ml ) to TNF-gamma to detected expression of TNF-gamma on cell surface, with DR3-Fc or LTbR-Fc (10 mg/ml) for receptor and ligand binding in the binding buffer (HBSS containing 10% BSA, 20 mM HEPES, pH 7.2, 0.02% NaN3). […] Fluorescence was analyzed by a FACscan flow cytometer (Becton Dickinson, Mountain View, Calif.).] […] After incubation at 37° C. for 72 hr, the NF-kB activity was measured with luminometer at absorbance of 450 nm.]
Cells were collected by trypsinization or aspiration, and centrifuged at 1500-2000 rpm for 5 min. […] The cells were incubated for 30 min at 40° C. with antibody (10 mg/ml ) to TNF-gamma to detected expression of TNF-gamma on cell surface, with DR3-Fc or LTbR-Fc (10 mg/ml) for receptor and ligand binding in the binding buffer (HBSS containing 10% BSA, 20 mM HEPES, pH 7.2, 0.02% NaN3). […] Fluorescence was analyzed by a FACscan flow cytometer (Becton Dickinson, Mountain View, Calif.).

TNF-gamma-beta [8] = biological target: T3, TNF-gamma-beta (Homo sapiens, UniProt O95150); experiment: FACS binding of receptor-Fc proteins to cells expressing full length TNF-gamma-beta
T3 construct: expressed in transfected cells
T3 sequence (O95150 1-251): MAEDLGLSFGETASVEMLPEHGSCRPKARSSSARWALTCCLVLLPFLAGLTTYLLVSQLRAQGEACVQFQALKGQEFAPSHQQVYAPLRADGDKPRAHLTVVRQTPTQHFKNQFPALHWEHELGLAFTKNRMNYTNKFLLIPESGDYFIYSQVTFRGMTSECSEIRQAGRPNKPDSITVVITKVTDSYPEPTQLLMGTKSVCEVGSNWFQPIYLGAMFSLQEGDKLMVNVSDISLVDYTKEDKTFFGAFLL
Description: These cells were used to screen the Fc-fusion form of the extracellular domain of TNFR family members, including TNFR1, Fas, HveA, DR3, DR4, DR5, DR6, DcR1, DcR2, TR6, OPG, RANK, AITR, TAC1, CD40, and OX40. […] TR6 has been previously described as a decoy receptor (Pitti et al., Nature 396:699-703 (1998); Yu et al., J. Biol. Chem. 274:13733-6 (1999)) capable of competing with Fas and HveA for binding of FasL and LIGHT, respectively.
Cells resistant to 0.5 mg/ml Genticin (Invitrogen) were selected and expanded. Expression of TNF-gamma-beta mRNA was confirmed by quantitative RT-PCR analysis and surface expression of TNF-gamma-beta protein confirmed by FACS analyses using TNF-gamma-beta monoclonal antibodies.
One million cells, in 0.1 ml of FACS buffer (PBS, 0.1% BSA, 0.1% NaN3), were incubated with 0.1-1 microgram of protein or antibody at RT for 15 min. The cells were washed with 3 ml of FACS buffer, reacted with biotinylated primary antibody, and stained with PE-conjugated secondary antibody at RT for 15 min. Cells were then washed again, resuspended in 0.5 microgram/ml of propidium iodide, and live cells were gated and analyzed on a FACScan using the CellQuest software (BD Biosciences).

WEHI 164 cells = experiment: Measurement of apoptosis (nucleosome ELISA); assay type: cell-based, mouse; conditions: increasing amounts (FIG. 12)
Description: In a first incubation step, anti-histone antibody was fixed adsorptively on the wall of a microtiter plate module. Subsequently, non-specific binding sites on the wall were saturated by treatment with incubation buffer (e.g., blocking solution). During the second incubation step, the nucleosomes contained in the WEHI 164 cell sample treated with the TNF-alpha, TNF-beta or bacterially-produced TNF-gamma were bound via their histone components to the immobilized anti-histone antibody. In the third incubation step, anti-DNA-peroxidase (POD) reacted with the DNA component of the nucleosomes. After removal of all unbound peroxidase conjugate by a washing step, the amount of peroxidase retained in the immunocomplex was determined spectrophotometrically using the substrate ABTS (2,2′-azino-di-[3-ethylbenzthiazoline sulfonate]). Anti-histone antibody reacted with the histones H1, H2A, H2B, H3, and H4 from the sample. Anti-DNA POD antibody bound to single- and double-stranded DNA. Therefore, the ELISA allowed the detection of mono- and oligonucleosomes and may be applied to measure apoptotic cell death. The level of cell death was measured by the amount of cytoplasmic histone-associated DNA fragments which was indicated by the ratio of the absorbances observed at 405 and 490 nm (A405/A490). […]

FGF-2: angiogenic factor FGF-2
EC50 value to stimulate in vitro angiogenesis [1]: about 5 ng/ml | concentration of maximum stimulatory effect on in vitro angiogenesis [1]: 10 ng/mL

DR3.Fc: extracellular domain of human DR3 (aa 1-199) fused to the Fc domain of human IgG1
immunoprecipitation of TNF-gamma-beta (TNF-gamma-beta [2]): can be used to immunoprecipitate TNF-gamma-beta | neutralization of TNF-gamma-beta SEAP activity by receptor-Fc (TNF-gamma-beta [3]): interacts with TNF-gamma-beta | inhibition of TNF-gamma-beta activation of NF-κB (TNF-gamma-beta [4]): able to inhibit

DR3-Fc: recombinant receptor DR3-Fc fusion protein (Fc-extracellular domain of DR3) [reference compound]
inhibition of TNF-gamma-beta-mediated IFNγ secretion (TNF-gamma-beta [5]): able to inhibit | immunoprecipitation of TNF-gamma-beta (TNF-gamma-beta [2]): specifically interacted with FLAG-TNF-gamma-beta | inhibition of TNF-gamma-beta induced caspase activation (TNF-gamma-beta [6]): inhibited by either DR3-Fc or TR6-Fc protein | binding to HUVEC cells and PBMC ([7]; FACS): also binds to HUVEC cells and PBMC | binding to TNF-gamma-transfected tumor cells (FACS shift) ([7]; MC-38/TNF-gamma cells): indicating cell-surface binding between TNF-gamma and DR3 | inhibition of TNF-gamma-beta activation of NF-κB (TNF-gamma-beta [4]): specifically inhibited | binding to cells expressing TNF-gamma-beta (FACS) (TNF-gamma-beta [8]): bound efficiently

B1: TNF-beta: tumor necrosis factor beta (lymphotoxin), control cytokine (protein, UniProt P01374 35-205, looked up)
Lymphotoxin-alpha: LPGVGLTPSAAQTARQHPKMHLAHSTLKPAAHLIGDPSKQNSLLWRANTDRAFLQDGFSLSNNSLLVPTSGIYFVYSQVVFSGKAYSPKATSSPLYLAHEVQLFSSQYPFHVPLLSSQKMVYPGLQEPWLHSMYHGAAFQLTQGDQLSTHTDGIPHLVLSPSTVFFGAFAL
apoptosis (cytoplasmic histone-associated DNA fragments, A405/A490) (WEHI 164 cells): also observed in the presence of increasing amounts
